Data published in patent US20200010567A1 (NEURIMMUNE, published 2020).

T1: monomeric C9orf72 (GA)20 DPR protein peptide preparation (C-terminal amide)
T1 construct: also called monomeric (GA)20
T1 peptide: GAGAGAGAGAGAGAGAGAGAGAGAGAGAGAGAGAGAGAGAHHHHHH

T2: aggregated C9orf72 (GA)20 DPR protein peptide preparation (C-terminal amide)
T2 construct: also called aggregated (GA)20; amyloid-fibril like aggregated (GA)20
T2 peptide: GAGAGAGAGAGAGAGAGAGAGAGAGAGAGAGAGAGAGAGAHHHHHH

T3: (GP)15: H-C(GP)15-OH
T3 construct: synthetic, not coupled to BSA; also called poly-GP DPR protein peptide
T3 peptide: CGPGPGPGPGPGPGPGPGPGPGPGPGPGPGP

B1: NI-308.15O7 (antibody, V domains shown)
VH: QVQLVESGGGVVQPGRSLRLSCAASGFTFSNHAMHWVRQAPGKGLEWVAVISYDGENTYYADSIEGRFTISRDNFKNTLFLQMYSLTADDTAMYFCARGGRRGHFTSYYLDYWGQGTLVTVSS
VL: CDIQMTQSPSSLSASVGDRVTITCRASQNIDKYLNWYQQIPGKAPKLLIYAASSLHSGVPSRFSGSGSGTDFSLTISSLQPEDFAIYYCQQSYSSFRTFGQGTKLEIK
B2: NI-308.18F7 (antibody, V domains shown)
VH: QVQLQESGPGLVKPSETLSVTCTVSGGSINDYYWNWIRQPAGKGLEWIGRIYASGTINYNPSLQSRVTMSIDTSKNQFSLDLISVSAADTAVYYCARWGQVVGDYYYGMDVWGQGTTVTVSS
VL: EIVLTQSPLSLSVTPGEPASISCKSSQSLQHTNGYNYLDWYLLKPGQSPQLLIFLTSNRASGVPDRFSGSGSGTNFTLKISRVEAEDVGVYYCMEGIQLWTFGQGTKLEIK
notes: Recombinant complete human IgG1, kappa
B3: NI-308.5G2 (antibody, V domains shown)
VH: EVQLVQSGADLRNPGASVTVSCTASGYHFADNAINWLRQAPGQRLEWMGWINIYSGNTKYSQNFQGRVTFTRNTSASTAFMHLRSLRSEDTAVYFCARDPDSSGYYLPYFDYWGQGTLVTVSS
VL: DIQLTQSPDSLTLSLGERATINCKSSQSVFYNSNNKNYLAWYQQKPGQPPKLLMYWASTRESGVTDRFSGSGSGTDFTLTITNLQAEDVAVYYCQQFYSSPLTFGGGTKVEIK
notes: as for B2
B4: NI-308.46E9 (antibody, V domains shown)
VH: QVQLQESGPGLVKPSETLSLTCTVSGASISGSTYYWGWIRQPPGKGLEYIGRIYYSGSTYYNPSLKSRATISVDTSKNQLSLTLSSVTAADTAVYYCVRPFYAGSGNSPFDYWGQGTLVTVSS
VL: CEIVLTQSPATVSVSPGERATLSCRASQSVSTNLAWYQQKPGQPPRLLIYGASTRATGIPARFSGSGSGAEFTLTISSLQSEDFVVYYCQQYNNWPPAFGGGTKVEIK
notes: as for B2

What was measured:
[1] = biological target: T1, monomeric C9orf72 (GA)20 DPR protein …; test: sandwich ELISA, preparation captured by anti-His antibody
Procedure: (§1) 96-well microplates (Corning Incorporated, Corning, USA) were coated with monoclonal mouse anti-His tag antibody (Takara Bio Europe/Clontech, Saint-Germain-en-Laye, France) at a concentration of 10 μg/ml in coating buffer (15 mM Na₂CO₃, 35 mM NaHCO₃, pH 9.42) overnight at 4° C. Non-specific binding sites were blocked for 1 h at room temperature with PBS/0.1% Tween®-20 containing 2% BSA (Sigma-Aldrich, Buchs, Switzerland). After a washing step, his-tagged (GA)₂₀ DPR protein peptide preparations at equal concentration of 5 μM in PBS (pH 7.4) were added for target-trapping by the anti-His tag antibody for 1 h at room temperature. […] Antibody binding to DPR protein peptides was detected by a donkey anti-human IgG Fcγ-specific antibody conjugated with HRP at 1:5000 dilution (Jackson ImmunoResearch Laboratories, Inc., West Grove, USA) for 1 h at RT. Binding was determined by measurement of HRP activity in a standard colorimetric assay. EC₅₀ values were estimated by non-linear regression using GraphPad Prism software (San Diego, USA).

[2] = biological target: T2, aggregated C9orf72 (GA)20 DPR protein …; test: as above
Procedure: as §1

(GP)15: H-C(GP)15-OH = biological target: T3, (GP)15: H-C(GP)15-OH; test: indirect ELISA, coated uncoupled peptide
Procedure: In brief, dipeptide repeat proteins were synthesized and purified by Schafer-N(Copenhagen, Denmark): (GA)₁₅: H-CHHHHHH(GA)₁₅-OH; (GP)₁₅: H-C(GP)₁₅-OH; (GR)₁₅: H-C(GR)₁₅-OH; (PA)₁₅: H-C(PA)₁₅-OH; (PR)₁₅: H—C(PR)₁₅-OH. 96-well microplates (Corning Incorporated, Corning, USA) were coated with dipeptide repeat protein peptides at a concentration of either 5 μg/ml or 20 μg/ml in coating buffer (15 mM Na₂CO₃, 35 mM NaHCO₃, pH 9.42). Non-specific binding sites were blocked for 1 h at room temperature with PBS/0.1% Tween®-20 containing 2% BSA (Sigma-Aldrich, Buchs, Switzerland). Primary antibodies were diluted to the indicated concentrations and incubated for 1 h at room temperature, followed by incubation with a donkey anti-human IgG Fcγ-specific antibody conjugated with HRP (Jackson ImmunoResearch Laboratories, Inc., West Grove, USA). Binding was determined by measurement of HRP activity in a standard colorimetric assay. EC₅₀ values were estimated by non-linear regression using GraphPad Prism software (San Diego, USA). The binding specificity and EC₅₀ of human-derived antibodies for C9orf72 dipeptide repeat protein peptides (GA)₁₅, (GP)₁₅, (GR)₁₅, (PA)₁₅ and (PR)₁₅ were determined by indirect ELISA.

[3] = biological target: T4, BSA-coupled (GR)15 DPR protein peptide (bovine, UniProt P02769 25-607, conjugated via a bifunctional linker (SMCC) to bovine serum albumin); test: Western blot of BSA-coupled peptides
T4 construct: also called BSA-(GR)15
T4 sequence (peptide, as listed by the source limits assumed, chain 1 of 2): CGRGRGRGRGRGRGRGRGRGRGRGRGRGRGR
T4 sequence (P02769 25-607 limits assumed, chain 2 of 2): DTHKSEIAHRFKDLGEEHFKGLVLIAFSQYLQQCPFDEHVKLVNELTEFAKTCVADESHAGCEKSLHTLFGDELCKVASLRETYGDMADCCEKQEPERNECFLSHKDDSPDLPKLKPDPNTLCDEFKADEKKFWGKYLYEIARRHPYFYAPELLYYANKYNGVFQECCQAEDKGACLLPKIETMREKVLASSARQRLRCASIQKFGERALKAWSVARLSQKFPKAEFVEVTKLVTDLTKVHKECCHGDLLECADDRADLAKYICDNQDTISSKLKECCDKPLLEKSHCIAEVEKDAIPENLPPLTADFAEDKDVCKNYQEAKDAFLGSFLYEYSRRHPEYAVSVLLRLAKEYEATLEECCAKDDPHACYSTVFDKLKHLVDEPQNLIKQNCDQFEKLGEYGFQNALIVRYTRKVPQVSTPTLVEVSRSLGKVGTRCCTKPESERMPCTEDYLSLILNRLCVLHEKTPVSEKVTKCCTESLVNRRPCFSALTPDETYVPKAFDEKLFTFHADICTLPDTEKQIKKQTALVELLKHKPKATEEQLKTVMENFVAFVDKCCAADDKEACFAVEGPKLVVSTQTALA
Procedure: (§2) Resolved proteins were then electroblotted (Novex® Semi-Dry Blotter, 1 h, 25V) on methanol-activated PVDF membranes (Immobilon®-P Transfer Membrane, Merck & Cie, Schaffhausen, Switzerland) by the use of Novex® NuPAGE® transfer buffer 2× (Life Technologies Europe B.V., Zug, Switzerland). Non-specific binding sites were blocked overnight at 4° C. (or alternatively for 1 h at room temperature) with PBS/0.1% Tween®-20 containing 2% BSA (Sigma-Aldrich, Buchs, Switzerland) (PBST). […] Membranes were washed three times in PBST for 15 min at RT and then incubated with a donkey anti-human IgG Fcγ-specific antibody conjugated with HRP (1:20000 or 1:10000 dilution, Jackson ImmunoResearch Laboratories, Inc., West Grove, USA) for 1 h at room temperature. Antibody binding was determined by membrane development using ECL and ImageQuant 350 detection (GE Healthcare, Otelfingen, Switzerland).
(§3) The binding specificity of the human-derived antibodies to BSA-coupled C9orf72 dipeptide repeat proteins (GA)₁₅, (GP)₁₅, (GR)₁₅, (PA)₁₅ and (PR)₁₅ was determined by Western blot analysis.

[4] = biological target: T5, BSA-coupled (PA)15 DPR protein peptide (bovine, UniProt P02769 25-607, conjugated via a bifunctional linker (SMCC) to bovine serum albumin); test: Western blot of BSA-coupled peptides
T5 construct: also called BSA-(PA)15
T5 sequence (peptide, as listed by the source limits assumed, chain 1 of 2): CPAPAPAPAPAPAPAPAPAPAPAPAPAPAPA
T5 sequence (P02769 25-607 limits assumed, chain 2 of 2): as the sequence (P02769 25-607 limits assumed, chain 2 of 2) above
Procedure: as §2, §3

[5] = biological target: T6, BSA-coupled (PR)15 DPR protein peptide (bovine, conjugated via a bifunctional linker (SMCC) to bovine serum albumin); test: Western blot of BSA-coupled peptides
T6 construct: also called BSA-(PR)15
T6 sequence (peptide, as listed by the source limits assumed, chain 1 of 2): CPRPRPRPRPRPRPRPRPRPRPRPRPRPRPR
T6 sequence (P02769 25-607 limits assumed, chain 2 of 2): as the sequence (P02769 25-607 limits assumed, chain 2 of 2) above
Procedure: as §2, §3

| Binder | EC50 [1] | EC50 [2] | EC50 ((GP)15: H-C(GP)15-OH) | binding result [3] | binding result [4] | binding result [5] |
| --- | --- | --- | --- | --- | --- | --- |
| B1 | 6.3 nM | 8.1 nM | – | – | – | – |
| B2 | 0.64 nM | 2.9 nM | – | – | – | – |
| B3 | – | – | 0.88 nM | no binding | no binding | no binding |
| B4 | – | – | 13.9 nM | no binding | no binding | no binding |
